The term EC50 denotes the concentration giving half of the maximal effect.

The target in series [1] is T1, recombinant His-tagged Der p1 (dust mite, UniProt P08176 99-320, limits assumed).
T1 sequence (looked up): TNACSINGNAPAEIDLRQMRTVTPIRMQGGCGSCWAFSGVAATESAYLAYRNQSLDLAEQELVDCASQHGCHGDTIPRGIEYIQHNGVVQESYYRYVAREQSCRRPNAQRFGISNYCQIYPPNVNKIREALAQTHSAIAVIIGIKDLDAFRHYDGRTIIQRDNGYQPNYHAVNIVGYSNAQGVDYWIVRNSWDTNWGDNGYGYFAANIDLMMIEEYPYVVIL
Nature of the series: ELISA, Der p1-His 0.016 µg/mL, repeat 1.

Series [2] has as its target T1, recombinant His-tagged Der p1. Nature of the series: ELISA, Der p1-His 0.016 µg/mL, repeat 2. On the technique in general: An ELISA detects its analyte on a solid surface through an enzyme-linked reagent.
The target is the same in series [3]. In words: ELISA, Der p1-His 0.00064 µg/mL, repeat 1.
Series [4] shares this target. In words: ELISA, Der p1-His 0.08 µg/mL, repeat 1.
The target is the same in series [5]. In words: ELISA, Der p1-His 0.08 µg/mL, repeat 2.
Series [6] shares this target. Nature of the series: ELISA, Der p1-His 0.00064 µg/mL, repeat 2.
The target is the same in series [7]. In words: ELISA, Der p1-His 10 µg/mL, repeat 1.
Series [8] has the same target. In words: ELISA, Der p1-His 2 µg/mL, repeat 2.
Series [9] shares this target. Nature of the series: ELISA, Der p1-His 2 µg/mL, repeat 1.
For series [10] the target is unchanged. In words: ELISA, Der p1-His 0.4 µg/mL, repeat 2.
For series [11] the target is unchanged. Nature of the series: ELISA, Der p1-His 0.0032 µg/mL, repeat 1.
Series [12] has the same target. In words: ELISA, Der p1-His 0.0032 µg/mL, repeat 2.
Series [13] shares this target. Nature of the series: ELISA, Der p1-His 10 µg/mL, repeat 2.
Series [14] has the same target. In words: ELISA, Der p1-His 0.4 µg/mL, repeat 1.
Series [15] concerns the target T2, Fel D1 epitope peptide SDAB22110-115-28AA-2 (cat).
T2 peptide: ENARILKNCVDAKM
In words: ELISA on Fel D1 epitope peptide; the row names two epitopes (SEQ ID NO: 61 and 58) and one EC50. Here is the method:
2 microgram per milliliter (μg/mL) target antigen is coated in a 96-well plate and ELISA assay is performed after incubation with candidate VHHs. The binding EC50 of each clone is calculated using Prism GraphPad. The positive control antibody is involved as an internal control.
Isolated VHH clones were further validated by performing an ELISA assay as described in Example 1. Binding results are shown in FIG. 15B-15D for the epitope of SEQ ID NO: 61. Binding results are shown in FIG. 16 for the epitope of SEQ ID NO: 59. Binding results are shown in FIG. 17A-17E for the epitope of SEQ ID NO: 60. Binding results are shown in FIG. 18 for the epitope of SEQ ID NO: 58.

Series [16] has as its target Fel D1. In words: ELISA binding assay of anti-Fel d1 VHH clones on Fel D1 epitopes. Also on record: species or system cat. The conditions noted are these: Epitope Recognized ENARILKNCVDAKM (SEQ ID NO: 61), VAQYKALPVVLENA (SEQ ID NO: 58).
The target in series [17] is T3, Fel D1 (Felis catus, UniProt P30438+P30440).
T3 sequence (P30438 23-92): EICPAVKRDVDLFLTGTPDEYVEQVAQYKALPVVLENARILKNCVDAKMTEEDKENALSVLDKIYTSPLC
T3 sequence (P30440 18-109): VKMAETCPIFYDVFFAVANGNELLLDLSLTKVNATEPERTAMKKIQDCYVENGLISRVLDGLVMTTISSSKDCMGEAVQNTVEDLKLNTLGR
Nature of the series: Size Exclusion Chromatography test of Fel D1 neutralization (tetramer formation). Further details: species or system cat. Conditions: 30 ug Fel D1 and 30 ug 1-C3 pre-incubated at 37° C. for 4 hours. Here is the method: Functional validation was also performed testing the capability of an exemplary clone to neutralize Fel D1. Fel D1 is naturally a weaker tetramer that causes allergic reactions by causing cross-linking of neighboring IgEs on immune cells (mast cells, etc.). […] On the SEC, there are two distinct peaks for pure Fel D1, the earlier peak representing the tetramer and the laker peak representing the monomer (FIG. 20A). Conditions for this SEC graph are (Column: Zenix-C SEC-80, 7.8×300 mm, 3 um, 80 Å; Sample: Fel D1; Sample Volume: 30 μL (25 ug); Mobile phase: 150 mM phosphate buffer, pH 7.0; Flow rate: 0.7 mL/min; Detection: UV 280 nm; System: Thermo Vanquish Flex.
Conditions for this SEC graph are (Column: Zenix-C SEC-80, 7.8×300 mm, 3 um, 80 Å; Sample: 1-C3; Sample Volume: 30 μL; Mobile phase: 150 mM phosphate buffer, pH 7.0; Flow rate: 0.7 mL/min; Detection: UV 280 nm; System: Thermo Vanquish Flex.
When clone C3 and Fel D1 are incubated together for 4 hours at 37° C. and then assayed, the two Fel D1 peaks were no longer detected and only the C3-Fel D1 complex is detected. […]
For orientation: Size exclusion chromatography separates by hydrodynamic size, large species first.

Series [18] is described as follows: Thermostability (Tm, Tonset, Tagg) by Nanotemper DSF. The series is classed as physicochemical. Also on record: key to Tm2 / Tagg / Tm1 / Tm / Tm3 / Tonset / Tonset ø (mean) / Tagg ø (mean): temperatures in °C. Conditions: anti-Fel d1 VHH. The procedure, abridged: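 Isolated VHH clones were heated from 20 °C to 95 °C at 1 °C/min using DSF. Tm, Tonset and Tagg were derived from the thermal curves. Where several melting transitions occurred, each was reported in order (Tm1, Tm2, etc.).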

Regarding known Der p1 antibody (clone 10B9), the OD at 450 nm in [1] was determined as 0.2 OD; in series [2], 0.17 OD; in series [3] it was 0.13 OD; in series [4], 0.58 OD; in [5], 0.49 OD; in series [6], 0.12 OD. Besides, the OD at 450 nm in [7] came to 4.37 OD; in series [8], 4.31 OD; in series [9] it was 4.03 OD; in series [10], 1.87 OD; in series [11], 0.25 OD; in series [12] it was 0.12 OD. For the same molecule, the OD at 450 nm in [13] worked out at 4.4 OD; in series [14], 1.8 OD.

B1: SDAB22110-1-1-C3 (VHH)
VHH: QLQLVESGGGLVQPGGSLRLSCEASGFTFKYYTMSWYRQAPGKERELVATITNGDRTNYADSVKGRFTISRDNAKNTLYLQMNSLKPYDTAVYYCNRHLPLLQIWGQGTQVTVSS
notes: Expressed from a prokaryotic vector
Consider B1, for which, in [15], the EC50 amounted to 0.352 µg/mL.

B2: SDAB22110-1-1-C3: anti-Fel d1 VHH clone, SEQ ID NO: 49 (protein)
VHH: AVQLVESGGGLVQPGGSLRLSCAASGFTFTNYAMRWYRQAPGKERELVAAIPTSGGYTYTADSVKGRFTISRDNAKNTVYLQMNSLKPEDTAVYYCYGLRTLSDYYWGQGTQVTVSS
Consider B2, for which the EC50 on Fel D1 [16] was found to be 0.352 µg/mL. Besides, the “Fel D1 tetramer formation (SEC)” value in the series with Fel D1 [17] is “preventing the Fel D1 tetramer from forming”. Moreover, the Tagg in series [18] stood at 58.93. Also, the Tm in series [18] (single melting point, in °C (unit assumed)) was determined as 66.50.

Values taken from patent US20240352105A1, “COMPOSITIONS AND METHODS FOR NEUTRALIZING ANTIGENS” (PACAGEN, INC, priority 2023, published 2024).
